Laboratory results reported in the DeepSol protein solubility set.

Test: soluble on expression in E. coli; label from the status in PepcDB or PDB records

Soluble on expression in E. coli, not soluble:
MGSDKIHHHHHHMNYRERIAQSITPLQGNLFRVVESQEDIATARIVDSMQEQNRLEELLESNKPPVPGTARKRHYLLTTPFRYPPLKYGSRFGRSFEPSLFYGAMSIPTALAETAFYRFVFMSHLKVPFKRPLTTLHTVFSARFRTERGVRLQSEHWQDLHHTLADPVSYRESQAVGTDMRSLQVGAFQFLSARALQAGLYALPYHPDNGVEGVNVALFNASVFRDAAPRSYQKLIAVTSPSQVSMSLSEPDGSKKVYEFSLDQFLVEGELPQPAP
MGSDKIHHHHHHMNYRTIAKNGSTEETIKKSRFICQAKRITNEAEGRDFITQIKKEHYKARHSCSAMIIGENSDIKRSSDDGEPSGTAGIPMLSVLEKKQLTNLVLVVTRYFGGIKLGTGGLIRAYSGGAANTLKALGIVEVKKQTGLRLELTYPQYQTFANFLKEHQLQEYDTDFSVTVNTTIYVDKKDIEFTLDQLTEFYQGKLKSHVAGNQIIEVPVI
MGSDKIHHHHHHMPAIELSNGEARLLARPDLGAGLTAFDVLHDGVWQAIFRRVDPSTAHPFALSNILLVPFSGRVSGGGFTFDGTFHALPRNVETELYPIHGNGFSAAWDVASLSADLLTLTLSAEGPGPFRYDATMSYRLQGAGLLMELSLVNRARIRLPYGAGFHPWFVREPDTTLHAPARGVWLEQSDHLPKAHDAIAAQADLDFNRPKPLPARWINNWFDGWDGKARIHWPSRGLAVDVDASEGLRQYVVFSPAAAADFFCFEPVTHPVDAFNLPGKAEAHGLKILEPDESLAVSARVAADFG
MGSDKIHHHHHHMPCKNFFTTRPIMEEDCLWDKRRKIVDDLFRTVLRGNIAILLGPRRVGKTSVVNVISQKFAKRRNHHYIYFNFSRFIGARAISIADIEPKRTSLKLITTSKSYVISLKGISVEVRKTSIEEFTSDFSTLVRILSQNSERGLLIFDEAQVLARLKNLDFRGLIQEITDSYPNISMIFTGSMPGLLIEYLNPGPDKPNFMRASETFTLSRWNVEEGLEFLKKGFESYGISVRNELELERAVKELGGIPGFISYYGITVINLVRSGVPVEKALPRALEESKRYALEEWKKDLEAFLNVYNSPIYVEVMKVLASSYPTALKGAEVYRRMNRAPKRIQHIYKYLDVLEKVGFIRSEGGKYWIEDPILRELLT
MGSDKIHHHHHHMPCMTLLRRAFAIPLLLMVSSGLALAERPAENQKIALQMYTLRSVSTLDEQFSMAHNAGFKAVELVGTHGISASEMKGLLGKYQLKAIAAHVQLGELKSNMAEVVAFNKAIGNRMIIVPWLNVEDRPNSAEGWQRFGTEMNDLGRELKKQGMQLAYHNHNFEMKKYRGKTALEIMLDAAEPENLMLEMDVAWVSLGGQDPARLLRQYKGRIYSIHAKDNTSIGIRDDEMNFAPPGEGILAWEEILPAAAKAGTQWFVAEHDLPKDPQAIISAAYQSLYEKLSKVKSK
MGSDKIHHHHHHMPDFSYAKITKLVVHFAGNKAREEGTEVSANVLQDIGSEMNQTLASIFLEPFTKDDYYQFSHETDLDFNEVRTFAANMFGAEEEFLDESKKILEHLYSETTHPNIKSGDVWIFFIEGCVVDGDFTNGIGIFKVENKEVFLKNDFNGSEFQIGYDKGITGTDLDKGCLIFNVDHDSGNKVLILDRLNRGDSVYWKDKFLSIDKITDEKFYTEGFVEVCTDYIKQREESLLDKSNFVKATSEYLAGEETLNIAEFARTTIEKPEEITEFNTMVDTFERENNVRFPETFQLDEEKREKLSKKIRKTIKLGKNISVVVKDLEQLEETDFVQGYDEEKGKNYMIVYYD
MGSDKIHHHHHHMPFDGLLLHKAVRELKELEGEHLRQIYQPTTVDYYFLFRSATVRVCLRPDVSHVAIAEKEEASEKMPSSFTMLLRKELKGAKLLKVEQIGMDRTLRFSFEKFDEIEGIVQKDLYIEIMGIHSNMILVRDRRIIDAHRRIVTKKREILPGREFVIFPSGKVSIFELRELPPESEKTIRNVLLSLLEGFSPVSVEELIHRTGYELDTPWKAVDQRKILEVLEEIKKELELPGVFVYYEASHPVEVSAFRFTMLSLKERYFEKPSEGINEFVRWKEEKSTFENTKNRFIKVVVNRIEDLEDLEEKLSRELSEAEKAERYKKLGDLIVQNLWSIKGKSGEVELTDWETNEKIVVDVGKDPAQTAQKFYNTYKKLQRKKEQVEKRLEEIQREKEYLYQLWQTIEDAEDLETLEEIEEEMREFGLLKERKTKKQKSKKTRFREVYYGGFKILIGRNNKQNDELVRTSSKEDLWFHAHEMPGAHVVVKTEGKKVPQEVVEYAASLAAGYSKGKNSGKVPVDYTFIKYVRKPKGFKPGMVIYKNYKTILVEPRRIEG
MGSDKIHHHHHHMPFENAPHLVFWEVTKACPLSCKHCRANAIDKPLPGELSTEESKKLLEDIARFGKVVIVFTGGDPLSRSDIFEIMEYAKSLGLIVSIAPSPSYRLRDETMKMISNYARYMSISIDGATSQTHDWLRGLGSYNYALRGIELGLKYGIQVQVNTLVWKKSYSELPFLVKLLKELGVKVWEVFFLIPVGRGVIELDIPKEKYKDVIDFLVETTRYDLVVRTVEAPFFRRAKLEYTPSTIKSNELVSKLRELLGEPVKDVDKSVLPTRDGSGVIFIGYNGDVYPSGFLPLYLGNVRKESIVDIYRKSEVLKIIKDGRFDGKCGVCKFNNICGGSRARAFAVYNNPFAEDPMCPY
MGSDKIHHHHHHMPGAYAHLTMVNLVKEPDRLEKQGFPPEAIVSILDYFRFCELGAVSPDYPYLDIAHSSAGQWADRMHYQRTGDMIKAGVEWIRRLDGASRQKAFSWLLGYTSHVVTDTTIHPVIELKVGEYQKNKDKHRICEMHQDAYIFQRLNLGEIGLAEHLDSGIWSCCDKPGSGKLDSVITRTWQSMLETCYAGACQTDPPLIDNWHGAFKFVVDKAEEGHALPPFARHVAANLGLTYPAVADLDPQYLESLATPLEAMSYDAIFDRALENVLATGSLIAKAVFQNDNSYATALVNCNLDTGKDDQGNHIYWKKGVS
MGSDKIHHHHHHMPGLPPPAVEPAVTSIKQEDLIQSVADALQYISYYHPVDYIKNLSAAYEREESPAAKDAIAQILINSRMCAEGHRPICQDTGIVTVFLEIGMNVRWDDATMGVEDMVNEGVRRAYNHPDNKLRASVLADPAGKRANTKDNTPAVVSTKIVPGDHLEVIVAAKGGGSEAKSKFAMLNPSDSIVDWVLKTVPTMGAGWCPPGMLGIGIGGTAEKAMLLAKEALMEPIDIVDLQARGASNRAEELRLELYEKVNALGIGAQGLGGLTTVLDIKVKDYPTHAANLPVALIPNCAATRHAHFTLDGSGPVMLDPPSLEDWPKLTYNPTNARRVNLDTITREEVASFKPGEVVLLNGKLLTGRDAAHKRMIDMLNRGETLPVDFTNRFIYYVGPVDPVRDEVVGPAGPTTATRMDKFTRQMLEQTGLLGMVGKSERGDAAIDAIRDNKAVYLMAVGGSAYLVSKAIKAARVLAFEDLGMEAIYEFEVKDMPVTVAVDSTGESVHKTGPRLWQSRIGKIPVVVE
MGSDKIHHHHHHMPHDDHITALCFNNAESYEKPILVTASRDGHFKVWILTDDSDIYKKAIAWTCDFVGSYHKYQATNCCFSEDGSLLAVSFEEIVTIWDSQTWELKCTFCQRAGKIRHLCFGRLTCSKYLLGTTDNGILCCWNLLSCSIQWSAKLNVRVMEPDPYSDHVAAVAQSSAGSDLFVFKPSEPRPLYIQKNVSREEVQWGVFVPRDVPESFTSETHQWLNRSQFYFLTKSQSLLTFSTKSPEEKLTPTSKQLLAEESLPTTPFSFILGKHRQQQGAKLTETSENELVQLPLTENIPAITELLHTPAHVLPSASFLCSLFVNSLLLSKETKSAEEVPDDVDMEGNKESDDSDEEYDLTEKDKETNNTDLGEDAIHQLSKSEEKELRKFRKVDYSWLTAL
MGSDKIHHHHHHMPLSPQQDILEIDQDASVLRFAPQAGGRLMSWTIDGEAVIHWPEHADWSQPARIRGGNPLLFPFLGRHRVDGKIGYWRDAKGTVRELPMHGFARDLPFEAHADVHGAGLRMILTDSTATRHGYPFGFRLETAYCLADARTLDVTFTTTNTGDSRLPSRLPYYAGHHFYFTLPHTQRAATSLELPRTERRHQQDDGSISAAEPGEARYTLDEARIQDRFHCLAGAPDRPVRLVAPGLDRIVTIDLQRPDSIPWYAVTTWTEAAESDFYCVEPWLGLPDAIHNGMGLRWLEPGQTEVAALRISVDKLG
MGSDKIHHHHHHMPPRASERSQLRGDENFVHAAHHELYNATQRRNLTKATTTIRTKRLNVTAEMPDWEAVREAGSGIKRDVGQRLDELLVQFEEAVTARGGHVHWARDAKEAGDIVTKLVEETGEKNVVKIKSMATMEIDLNNRLREAGISARETDLAELIVQLGKDKPSHILVPAIHRNRAEIRDIFIREMPNTDDSLSSEPAELAEASRSFLREQFMKAKVAISGANFGIAETGTVTIMESEGNGRMCLTLPETLISVMGIEKIIPTFQDLEVFLQLLPRSSTGERQAPYVSTWSGVTEGDGPKNFHIVLVDNGRTAVLSDEIGREALKCIRCSACLNVCPVYERAGGHAYGSTYPGPIGAILSPQMTGIKNKHDPNAYLPYASSLCGRCNEVCPVKIPFTDILLELRHKKIQTDAPKIEKAMMGAMQLAWGNSTMWNMITRMVFMGRIMGGSNGKITHLPSFLAGWTDVRDTAVPPKKSFRQWFETEEAQQLLADARRDGIHPNNPEVNQKKEN
MGSDKIHHHHHHMPRIHFNPDGRRSPTEFEPVTVHHRKPPLDGIISSHRHNWSQLTCPLKGSMRVTTERQVWTVTSFRAVWIPPGVDHELTMVGATEFHAVFIDPQHSPLPANQCCVVDVSPLMRELMQWLGADYGPATDHSRRLTDVLLEEVRRATRRTSALVLPGDRRLKSLCEALMEDPGSTLTLGEWAHRTGASERTLARLFQIELGTTFGAWRQQLRLSCAVDLLRSGLSLSRIAADLGYADSAAFSTMFKRAFGVAPSRYHASSAQAMN
MGSDKIHHHHHHMPRPYTLFTGQWADLPFEEVARLASGWGYDGLEIAVSGDHLDAWRWDEPGYVQSKLAVLEKYNLKVWAISNHLKGQAVCDDPIDFRHEAIVGSKVWGDGDPEGVRTRAAEEMKHTARLAKALGVDTVVGFTGSSIWQYVAMFPPVPEKVIQAGYQDFADRWNPILDVFDECGVRFAHEVHPSEIAYDYWTTVRTLEAIGHREAFGLNWDPSHFMWQGIDPVSFIWDFKDRIYHVDCKDTKLRPTGRNTVLGSHLPWGDPRRGWDFVSAGRGDVPWESSFRALTAIGYDGPISVEWEDAGMDRLHGAPEALAALKKFDFPASQTSFDAAFSSKD
MGSDKIHHHHHHMPTVLALETSCDESAAAVLRLNNGCLQVIASRIASQVEKHAQWGGVVPEVASRLHVEALPHLVEEVLQEAGQSMARFDAVAATVTPGLAGALMVGSVTGRSLAALHALPFFGIHHLEGHLASVRLAEHPPRPPYLVLLVSGGHTELIRVGAESEMVRLGRSHDDAAGEAFDKVGRLLGLAYPGGPAIQALAATGDSGRFSLPKGRVSKPGGGFHPYDFSFSGLKTAMLRLVQALSEADEDLPRADLAASFEQVVADVLVERSLLCANDQGLKTVVMVGGVAANRRLRELMSKRGQEQGIEVHTAPLRYCTDNAAMIGAAALQRLVSGVNGSSLELGVAARWPLDKTEVLYHSPPPF
